How the values were obtained:
[1] = target: GIRK2 L257A mutant channel; test: cell-based or functional assay
[2] = target: GIRK2 L257W mutant channel; test: cell-based or functional assay
[3] = target: GIRK2 L257Y mutant channel; test: cell-based or functional assay
[4] = target: GIRK2 Y349W mutant channel; test: cell-based or functional assay
[5] = target: GIRK2c channel, wild type; test: cell-based or functional assay
[6] = target: GIRK4 S143T mutant channel; test: cell-based or functional assay
[7] = target: GIRK4* L252A mutant channel; test: cell-based or functional assay
[8] = target: GIRK4* L252W mutant channel; test: cell-based or functional assay
[9] = target: GIRK4* L252Y mutant channel; test: cell-based or functional assay
[10] = target: the molecule itself; test: X-ray crystal structure at 2.0 A; homotetramer
[11] = target: the molecule itself; test: S200 Sepharose size chromatography; self-association of the cytoplasmic domains into a tetramer
Procedure: (§1) Kir2.1 mutants were grown in Terrific Broth at 37 degrees C. to the OD600 of 0.6, then induced with 0.5 mM IPTG for 3 hours prior to harvesting. Cells were lysed in 0.5M NaCl, 20 mM Tris-HCl pH 8.5, 10% glycerol, 7 mM beta-mercaptoethanol, 0.1 mM PMSF, 10 mM imidazole and 0.5 mg lysozyme per 100 ml of lysate. The lysate was sonicated and spun at 94,000 G for 45 minutes. The supernatant was loaded on a 2 ml-packed nickel affinity column (Qiagen), washed with 5 ml of lysis buffer without PMSF, and then eluted with lysis buffer with 250 mM imidazole. Thrombin was added to the eluted fraction and it was dialyzed against the sizing column buffer, 150 mM NaCl, 5 mM Tris-HCl pH 8.5, 2 mM DTT. Kir2.1 was then purified by S200 Sepharose chromatography and concentrated to 10 mg/ml with 10 mM DTT. Kir2.1 proteins were loaded on a G4000PWXL HPLC column (TOSOH) equilibrated in 150 mM NaCl, 5 mM Tris-HCl 8.5, 2 mM DTT. Molecular weight (MW) of the tetramer complex was calculated by Minidawn static light scattering requiring the use of the extinction coefficient of the monomer. The extinction coefficient was derived from the primary sequence of the protein. […]

[12] = target: the molecule itself; test: size chromatography of the cytoplasmic domains; homotetramer
Procedure: as §1

[13] = target: the molecule itself; test: sizing column; self-association into a tetramer
Procedure: Kir2.1 mutants were grown in Terrific Broth at 37 degrees C. to the OD600 of 0.6, then induced with 0.5 mM IPTG for 3 hours prior to harvesting. Cells were lysed in 0.5M NaCl, 20 mM Tris-HCl pH 8.5, 10% glycerol, 7 mM beta-mercaptoethanol, 0.1 mM PMSF, 10 mM imidazole and 0.5 mg lysozyme per 100 ml of lysate. The lysate was sonicated and spun at 94,000 G for 45 minutes. The supernatant was loaded on a 2 ml-packed nickel affinity column (Qiagen), washed with 5 ml of lysis buffer without PMSF, and then eluted with lysis buffer with 250 mM imidazole. Thrombin was added to the eluted fraction and it was dialyzed against the sizing column buffer, 150 mM NaCl, 5 mM Tris-HCl pH 8.5, 2 mM DTT. Kir2.1 was then purified by S200 Sepharose chromatography and concentrated to 10 mg/ml with 10 mM DTT. Kir2.1 proteins were loaded on a G4000PWXL HPLC column (TOSOH) equilibrated in 150 mM NaCl, 5 mM Tris-HCl 8.5, 2 mM DTT. Molecular weight (MW) of the tetramer complex was calculated by Minidawn static light scattering requiring the use of the extinction coefficient of the monomer. The extinction coefficient was derived from the primary sequence of the protein.
To understand the nature of the mildly-aggregating R218Q, it was reasoned that changing the Thr309 to a positive charge residue would restore a polar interaction similar to the native one present in Kir2.1 between Arg218 and Thr309 (FIG. 2C). […]

## G-protein beta-gamma subunits
[1]
  percent change from basal current on Carbachol, whole-cell patch clamp: 36%
[2]
  percent change from basal current on Carbachol, whole-cell patch clamp: 12%
[3]
  percent change from basal current on Carbachol, whole-cell patch clamp: 38%
[4]
  percent change from basal current on Carbachol, whole-cell patch clamp: 56%
[5]
  percent change from Ba++ sensitive basal current on 5 uM Carbachol (M2R co-transfected), whole-cell patch clamp: 928%
[6]
  Carb activation as percent of basal current, whole-cell patch clamp (% of basal current): 231
[7]
  Carb activation as percent of basal current, whole-cell patch clamp: 51%
[8]
  Carb activation as percent of basal current, whole-cell patch clamp: 23%
[9]
  Carb activation as percent of basal current, whole-cell patch clamp: 110%

B1: Kir2.1S-R218Q/T309K, N-terminal (44-64) fused to C-terminal (189-371) of mouse Kir2.1 (other, UniProt P35561 44-64, looked up)
chain: RSRFVKKDGHCNVQFINVGEKRNETLVFSHNAVIAMRDGKLCLMWRVGNLQKSHLVEAHVRAQLLKSRITSEGEYIPLDQIDINVGFDSGIDRIFLVSPITIVHEIDEDSPLYDLSKQDIDNADFEIVVILEGMVEATAMTKQCRSSYLANEILWGHRYEPVLFEEKHYYKVDYSRFHKTYEVPNTPLCSARDLAEKKYILSNA
notes: range 44-64;range 189-371; Crystallised form (2.0 A, space group C2, one tetramer per asymmetric unit); also called R218Q/T309KS; R218Q/T309Ks
[10]
  binding result: binds

B2: Kir2.1L-E303K (other, mouse, UniProt P35561 44-64, looked up)
chain: RSRFVKKDGHCNVQFINVGEKRNETLVFSHNAVIAMRDGKLCLMWRVGNLRKSHLVEAHVRAQLLKSRITSEGEYIPLDQIDINVGFDSGIDRIFLVSPITIVHEIDEDSPLYDLSKQDIDNADFEIVVILEGMVKATAMTTQCRSSYLANEILWGHRYEPVLFEEKHYYKVDYSRFHKTYEVPNTPLCSARDLAEKKYILSNANSFCYENEVALTSKEEEEDSENGVPESTSTDSPPGIDLHNQASVPLEPRPLRRESEI
notes: range 44-64;range 189-428; Same construct as Kir2.1L; also called E303KL
[11]
  binding result: binds

B3: Kir2.1L-G300V (other, mouse, UniProt P35561 44-64, looked up)
chain: RSRFVKKDGHCNVQFINVGEKRNETLVFSHNAVIAMRDGKLCLMWRVGNLRKSHLVEAHVRAQLLKSRITSEGEYIPLDQIDINVGFDSGIDRIFLVSPITIVHEIDEDSPLYDLSKQDIDNADFEIVVILEVMVEATAMTTQCRSSYLANEILWGHRYEPVLFEEKHYYKVDYSRFHKTYEVPNTPLCSARDLAEKKYILSNANSFCYENEVALTSKEEEEDSENGVPESTSTDSPPGIDLHNQASVPLEPRPLRRESEI
notes: range 44-64;range 189-428; Same construct as Kir2.1L; also called G300VL
[12]
  binding result: binds

B4: Kir2.1L-R218Q/T309K (other, mouse, UniProt P35561 44-64, looked up)
chain: RSRFVKKDGHCNVQFINVGEKRNETLVFSHNAVIAMRDGKLCLMWRVGNLQKSHLVEAHVRAQLLKSRITSEGEYIPLDQIDINVGFDSGIDRIFLVSPITIVHEIDEDSPLYDLSKQDIDNADFEIVVILEGMVEATAMTKQCRSSYLANEILWGHRYEPVLFEEKHYYKVDYSRFHKTYEVPNTPLCSARDLAEKKYILSNANSFCYENEVALTSKEEEEDSENGVPESTSTDSPPGIDLHNQASVPLEPRPLRRESEI
notes: range 44-64;range 189-428; Same construct as Kir2.1L; also called R218Q/T309KL
[13]
  binding result: binds

B5: Kir2.1L-R218Q/T309R (other, mouse, UniProt P35561 44-64, looked up)
chain: RSRFVKKDGHCNVQFINVGEKRNETLVFSHNAVIAMRDGKLCLMWRVGNLQKSHLVEAHVRAQLLKSRITSEGEYIPLDQIDINVGFDSGIDRIFLVSPITIVHEIDEDSPLYDLSKQDIDNADFEIVVILEGMVEATAMTRQCRSSYLANEILWGHRYEPVLFEEKHYYKVDYSRFHKTYEVPNTPLCSARDLAEKKYILSNANSFCYENEVALTSKEEEEDSENGVPESTSTDSPPGIDLHNQASVPLEPRPLRRESEI
notes: range 44-64;range 189-428; Same construct as Kir2.1L; also called R218Q/T309RL
[13]
  binding result: binds
